Sequences and labels used below:
B1: anti-human PD-L1 monoclonal antibody 50G2-3 (antibody, V domains shown)
VH: EVQLVESGGGLVQPGRSLKLSCVASGFTFSNFWMTWIRQAPGKGLEWVASITHSGGITYYPDSVKGRFTISRDDAKSTLYLQMNSLRSEDTATYYCSRDPTEAPFDYWGQGVMVTVSS
VL: DIQMTQSPPSLSASLGDQVTITCQASQNINNYIAWYQQKPGKAPRQLIRYTSTLVSGTPSRFSGSGSGKDYSFSISNVESEDIASYYCLQYDNVPNTFGAGTKLELK
notes: also called murine hybridoma clone 50G2-3
B2: 1910G2HzL7H7 (antibody, V domains shown)
VH: B1 VH with R16G, K19R, V23A, I37V, P61A, A75S, S88A, T93V, V112T, M113L
VL: DIQMTQSPSSLSASVGDRVTITCQASQNINNYIAWYQQKPGKAPKQLIRYTSTLVSGVPSRFSGSGSGKDYTFTISSLQPEDIATYYCLQYDNVPNTFGQGTKLEIK
notes: Only the variable domains are tied to the name; Full chains are not tied to the name; also called humanized antibody 1910G2HzL7H7; 1910G2HzL7 + 1910G2HzH7
B3: 1910G2HzL3H3 (antibody, V domains shown)
VH: B1 VH with R16G, K19R, V23A, T35S, I37V, P61V, D74N, T78S, S88A, T93V
VL: B2 VL with V58T, S77N
notes: Only the variable domains are tied to the name; Full chains are not tied to the name; also called humanized antibody 1910G2HzL3H3; 1910G2HzL3 + 1910G2HzH3
B4: 1910G2HzL2H2 (antibody, V domains shown)
VH: B1 VH with R16G, K19R, V23A, I37V, P61V, T78S, S88A, T93V, V112T, M113L
VL: B2 VL
notes: Only the variable domains are tied to the name; Captured on an AHC sensor and detected with anti-human secondary antibody; also called humanized antibody 1910G2HzL2H2; 1910G2HzL2 + 1910G2HzH2
B5: 1910G2HzL4H4 (antibody, V domains shown)
VH: B1 VH with R16G, K19R, V23A, I37V, A75S, S77N, S88A, T93V, V112T, M113L
VL: B2 VL
notes: Only the variable domains are tied to the name; Full chains are not tied to the name; also called humanized antibody 1910G2HzL4H4; 1910G2HzL4 + 1910G2HzH4
B6: 1910G2HzL9H9 (antibody, V domains shown)
VH: EVQLVESGGGLVQPGGSLRLSCAASGFTFSNFWMSWVRQAPGKGLEWVASITHSGGITYYADSVKGRFTISRDDSKNTLYLQMNSLRAEDTAVYYCSRDPTEAPFDYWGQGTLVTVSS
VL: B2 VL with Y71F
notes: Only the variable domains are tied to the name; Full chains are not tied to the name; also called humanized antibody 1910G2HzL9H9; 1910G2HzL9 + 1910G2HzH9

Substitutions are numbered along the chain they refer to.

By Kd is commonly meant a measure of binding affinity in units of concentration. In general, koff refers to the first-order rate constant of dissociation. What is called kon is the second-order rate constant of association.

T2 sequence (Q9NZQ7 19-238 limits assumed): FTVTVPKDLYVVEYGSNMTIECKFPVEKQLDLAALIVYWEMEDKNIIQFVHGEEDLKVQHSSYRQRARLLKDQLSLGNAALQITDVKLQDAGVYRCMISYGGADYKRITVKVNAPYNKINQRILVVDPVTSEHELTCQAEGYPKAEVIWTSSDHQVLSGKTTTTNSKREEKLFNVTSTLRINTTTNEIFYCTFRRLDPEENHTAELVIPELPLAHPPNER
T1 sequence (Q9NZQ7 19-290): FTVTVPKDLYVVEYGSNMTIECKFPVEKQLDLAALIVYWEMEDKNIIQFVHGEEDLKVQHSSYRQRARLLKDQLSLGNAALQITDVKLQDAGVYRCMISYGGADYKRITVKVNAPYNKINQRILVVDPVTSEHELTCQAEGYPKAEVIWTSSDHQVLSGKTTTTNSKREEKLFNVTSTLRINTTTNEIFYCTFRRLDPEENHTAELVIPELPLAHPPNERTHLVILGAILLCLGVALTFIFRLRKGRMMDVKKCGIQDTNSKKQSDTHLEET

The first experiment has as its target T1, human PD-L1 protein on HEK293 cell (human, UniProt Q9NZQ7 19-290).
T1 construct: whole, on cells; also called HEK293-hPD-L1; HEK293-PD-L1
The experiment can be described thus: flow cytometry screening on HEK293-PD-L1 cells. Here is the method: Clones that specifically bind to HEK293-PD-L1 cells and can simultaneously block the binding of receptor PD-1 to HEK293-hPD-L1 cells were screened from the fusion plate by flow cytometer and subcloning was carried out by limited dilution method, and finally a monoclonal that can secrete specific antibodies was screened. Monoclonal antibodies were obtained by small-scale production and purification in serum-free medium for subsequent identification, including the detection of the binding ability of antibodies to HEK293-PD-L1, the function of blocking binding of PD-1 to HEK293-hPD-L1 cell, and the mixed lymphocyte experiment to finally obtain candidate anti-human PD-L1 monoclonal antibody 50G2-3. The sequences of the variable regions of murine hybridoma clone 50G2-3 obtained by monoclonal antibody sequencing is as follows: […]
A general note: In flow cytometry, cells or beads pass a laser one at a time.
On to B1, for which the binding result is given as “binds”.

The next experiment concerns the target T2, human PD-L1 (Acro, Catalog Number: H5229) (human, UniProt Q9NZQ7 19-238).
T2 construct: Soluble antigen in the BLI assay; also called antigen
In words: BLI, Octet RED96e, antibody on AHC sensor, antigen 100 nM, 1:1 fit. As to the method:
(2) Detection of samples on machines (Octet Data Acquisition 11.1.0.11): First, the sample was added into a 96-well plate (Greiner bio-one, 655209) with a system of 200 μL/well. Then the software parameters were set, the plate temperature was set to 30° C., and the frequency of collecting standard dynamic signals was 5.0 HZ. Next, the AHC sensor (Fortébio, Catalog Number: 18-0015) was pre-wetted with 1xPBST for 10 minutes, and then the sample was detected on the instrument. Each cycle incluedes the following steps: 1) immersing in buffer for 60 seconds; 2) detecting whether the antigen nonspecifically binding to the sensor; 3) regeneration of 10 mM glycine solution with pH 1.7; 4) immersing in the buffer for 60 seconds; 5) immobilizing the antibody on the sensor for 20 seconds; 6) immersing the sensor in the buffer for 180 seconds; 7) the antigen binding to the antibody for 180 seconds; 8) dissociating the antigen from the antibody for 10 minutes; 9) regenerating the sensor.
On the technique in general: BLI is a label-free optical method that tracks binding on a fibre tip over time.
B2 showed a Kd of 0.302 nM, a koff of 0.000289 s⁻¹ and a kon of 958000 M⁻¹ s⁻¹.
The corresponding values for B3 are 0.452 nM, 0.000477 s⁻¹ and 1.06e+06 M⁻¹ s⁻¹.
B4: the Kd was 0.243 nM, the koff worked out at 0.00025 s⁻¹ and the kon came to 1.03e+06 M⁻¹ s⁻¹.
Molecule B5 registered a Kd of 0.16 nM, a koff of 0.000165 s⁻¹ and an on-rate (kon) of 1.03e+06 M⁻¹ s⁻¹.
For the molecule B6, the Kd was found to be 0.214 nM, the koff was 0.00021 s⁻¹ and the kon is 980000 M⁻¹ s⁻¹.

(Values after patent US20250277038A1 (SHANGHAI JEMINCARE PHARMACEUTICAL, published 2025).)
